{"source": "patent US20210403576A1", "about": "(HELIXMITH, published 2021)", "key": {"[1]": {"biological_target": "c-Met protein receptors on HUVEC (human, UniProt P08581 25-1390)", "sequence (P08581 25-1390)": "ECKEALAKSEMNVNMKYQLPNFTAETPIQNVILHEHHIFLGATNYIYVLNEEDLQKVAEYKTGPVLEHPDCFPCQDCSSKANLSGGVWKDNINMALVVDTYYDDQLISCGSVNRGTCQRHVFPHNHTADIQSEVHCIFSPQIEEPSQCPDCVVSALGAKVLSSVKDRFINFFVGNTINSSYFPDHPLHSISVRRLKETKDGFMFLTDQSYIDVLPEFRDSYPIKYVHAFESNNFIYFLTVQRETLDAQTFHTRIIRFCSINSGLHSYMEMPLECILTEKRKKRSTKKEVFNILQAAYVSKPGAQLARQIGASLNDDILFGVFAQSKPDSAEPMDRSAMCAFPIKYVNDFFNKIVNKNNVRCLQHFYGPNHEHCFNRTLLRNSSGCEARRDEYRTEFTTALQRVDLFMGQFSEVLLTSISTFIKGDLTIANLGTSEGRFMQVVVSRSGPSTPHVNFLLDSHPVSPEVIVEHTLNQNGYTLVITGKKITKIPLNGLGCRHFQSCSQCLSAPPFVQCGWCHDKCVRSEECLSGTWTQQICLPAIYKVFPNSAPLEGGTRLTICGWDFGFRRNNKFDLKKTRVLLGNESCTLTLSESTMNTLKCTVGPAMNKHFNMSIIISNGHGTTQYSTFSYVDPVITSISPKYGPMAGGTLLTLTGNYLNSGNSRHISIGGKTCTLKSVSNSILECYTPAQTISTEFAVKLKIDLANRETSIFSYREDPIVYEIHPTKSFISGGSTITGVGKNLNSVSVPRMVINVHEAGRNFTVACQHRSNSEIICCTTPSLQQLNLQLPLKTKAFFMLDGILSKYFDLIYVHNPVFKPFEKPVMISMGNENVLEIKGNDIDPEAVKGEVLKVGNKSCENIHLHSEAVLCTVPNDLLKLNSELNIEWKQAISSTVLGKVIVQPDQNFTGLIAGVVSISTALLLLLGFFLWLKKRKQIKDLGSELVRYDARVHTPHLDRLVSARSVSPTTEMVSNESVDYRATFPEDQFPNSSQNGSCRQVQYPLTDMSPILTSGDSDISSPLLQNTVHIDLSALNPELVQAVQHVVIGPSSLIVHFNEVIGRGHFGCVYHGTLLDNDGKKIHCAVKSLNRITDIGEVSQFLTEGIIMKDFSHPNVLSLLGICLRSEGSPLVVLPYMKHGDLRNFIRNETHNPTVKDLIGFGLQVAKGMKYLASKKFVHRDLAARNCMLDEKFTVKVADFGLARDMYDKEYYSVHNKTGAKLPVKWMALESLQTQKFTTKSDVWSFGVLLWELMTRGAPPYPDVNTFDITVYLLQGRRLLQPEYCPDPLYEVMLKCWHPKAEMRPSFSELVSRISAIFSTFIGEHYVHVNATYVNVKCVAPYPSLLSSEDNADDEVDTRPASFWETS", "assay": "cell-based or functional assay"}, "[2]": {"biological_target": "T1, human c-Met (Sino Biological) (human, UniProt P08581 25-932, limits assumed)", "T1 construct": "Analyte in the Biacore assay; also called antigen (c-Met); printed as \"human c-Met antibody (Sino Biological, Beijing, China)\"", "T1 sequence (P08581 25-932 limits assumed)": "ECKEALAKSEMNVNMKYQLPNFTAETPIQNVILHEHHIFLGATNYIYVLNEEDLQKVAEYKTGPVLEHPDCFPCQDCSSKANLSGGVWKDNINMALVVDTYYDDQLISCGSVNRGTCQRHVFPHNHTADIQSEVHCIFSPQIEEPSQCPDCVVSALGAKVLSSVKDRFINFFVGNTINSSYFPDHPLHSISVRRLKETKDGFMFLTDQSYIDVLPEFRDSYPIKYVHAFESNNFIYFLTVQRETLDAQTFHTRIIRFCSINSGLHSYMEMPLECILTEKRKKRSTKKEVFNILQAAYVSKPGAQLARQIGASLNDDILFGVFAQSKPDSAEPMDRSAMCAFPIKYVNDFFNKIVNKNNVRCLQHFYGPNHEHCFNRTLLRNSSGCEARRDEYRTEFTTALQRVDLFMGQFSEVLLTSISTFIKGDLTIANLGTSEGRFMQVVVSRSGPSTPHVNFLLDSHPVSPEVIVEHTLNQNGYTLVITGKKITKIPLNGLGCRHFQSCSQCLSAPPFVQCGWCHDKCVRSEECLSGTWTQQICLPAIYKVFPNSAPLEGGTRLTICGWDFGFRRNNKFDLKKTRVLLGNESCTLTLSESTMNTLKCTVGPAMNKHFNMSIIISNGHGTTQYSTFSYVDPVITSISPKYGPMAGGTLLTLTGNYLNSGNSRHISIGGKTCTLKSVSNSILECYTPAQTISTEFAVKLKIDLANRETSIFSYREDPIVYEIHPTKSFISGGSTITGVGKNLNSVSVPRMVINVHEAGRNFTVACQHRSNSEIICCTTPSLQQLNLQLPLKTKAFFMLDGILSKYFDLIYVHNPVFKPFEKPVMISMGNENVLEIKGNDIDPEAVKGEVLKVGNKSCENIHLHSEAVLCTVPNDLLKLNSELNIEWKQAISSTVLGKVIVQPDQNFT", "assay": "derived from the Biacore KD, normalised to VH0/Vk0", "experimental": "(§1) The candidate antibodies selected in Example 4 were measured for binding affinity for the antigen (c-Met) with the aid of Biacore. […] The anti-c-Met antibodies to be analyzed were immobilized on Protein A CM5 chips (GE Healthcare, Little Chalfont, UK) through which human c-Met antibody (Sino Biological, Beijing, China) with various concentrations ranging 0.15 to 2 nM was allowed to pass, thereby acquiring sensorgrams. On the basis of the acquired sensorgrams, association constants kₒₙ and dissociation constants koff were measured to calculate Ko value, the ratio koff/kₒₙ.\n(§2) In order to select a final candidate group from the 21 candidate antibodies selected in Example 4, comparison was made according to criteria specified into expression level, binding affinity for antigen, thermal stability, and biopotency. As a rule, the expression level is considered to be the most important index when time and cost are taken into consideration from a point of view of production. […] Thereafter, degrees of improvement in each of the remaining candidate antibodies compared to the reference antibody (VH0/Vk0) were digitized with regard to the selected indices. For normalization, analysis index measurements for individual candidate antibodies were divided by average values to give ratios (index 1) which were in turn divided by the measurement for the antibody VH0/Vk0 (index 2) (Tables 6 to 9). In addition, the measurements for the four indices were multiplied for comprehensive comparison of the four indices of the candidate antibodies. The final results (index 3) are listed in a descending order in Table 10."}, "[3]": {"biological_target": "T1, human c-Met (Sino Biological)", "assay": "derived from the Biacore KD, printed 'Average' 3.52 x10^-10 M divided by the KD", "experimental": "as §1, §2"}, "[4]": {"biological_target": "T1, human c-Met (Sino Biological)", "assay": "SPR (Biacore T200), IgG captured on Protein A CM5 chip, c-Met 0.15-2 nM as analyte", "experimental": "as §1"}}}
{"binder": "VH5/Vk2 (antibody, IgG1, V domains shown, Full IgG1/kappa expressed in HEK 293 EBNA cells) VH: QVQLVQSGAEVKKPGSSVKVSCQGSGYSFPTHWITWVRQAPGQGLEWMGTIDPTDSYNFYGPSFQGRVTITADSSTSTAYMELSSLRSEDTAVYYCARDGNYYDSRGYYYDTFDMWGQGTLVTVSS VL: DIQMTQSPSSLSASVGDRVTITCRASQGISTYLAWYQQKPGKAPKLLIYSASTLESGVPSRFSGSGSGTDFTLTISSLQPEDFATYYCQQADSFPLTFGGGTKVEIK", "values": [{"measurement": "Index 1 (Relative Migration divided by the Average 157.5), HUVEC migration assay", "setting": "[1]", "result": 1.12}, {"measurement": "Index 2 (Relative Migration relative to VH0/Vk0), HUVEC migration assay", "setting": "[1]", "result": 1.18}, {"measurement": "Relative Migration (%), HUVEC migration assay, 90 ng/ml", "setting": "[1]", "result": 176, "unit": "%"}, {"measurement": "Index 2 (binding affinity, inverse KD relative to VH0/Vk0)", "setting": "[2]", "result": 1.24}, {"measurement": "Index 1 (binding affinity, inverse KD relative to the Average 3.52)", "setting": "[3]", "result": 0.838}, {"measurement": "Kd", "setting": "[4]", "result": 0.42, "unit": "nM"}, {"measurement": "Relative KD to VMDO2 VH0/Vk0", "setting": "[4]", "result": 0.81}]}
{"binder": "VH6/Vk2 (antibody, IgG1, V domains shown, Full IgG1/kappa expressed in HEK 293 EBNA cells) VH: QVQLVQSGAEVKKPGSSVKVSCKASGYSFPTHWITWVRQAPGQGLEWMGTIDPTDSYNFYGPSFQGRVTITADKSTSTAYMELSSLRSEDTAVYYCARDGNYYDSRGYYYDTFDMWGQGTLVTVSS VL: DIQMTQSPSSLSASVGDRVTITCRASQGISTYLAWYQQKPGKAPKLLIYSASTLESGVPSRFSGSGSGTDFTLTISSLQPEDFATYYCQQADSFPLTFGGGTKVEIK", "values": [{"measurement": "Index 1 (Relative Migration divided by the Average 157.5), HUVEC migration assay", "setting": "[1]", "result": 0.979}, {"measurement": "Index 2 (Relative Migration relative to VH0/Vk0), HUVEC migration assay", "setting": "[1]", "result": 1.03}, {"measurement": "Relative Migration (%), HUVEC migration assay, 90 ng/ml", "setting": "[1]", "result": 154, "unit": "%"}, {"measurement": "Index 2 (binding affinity, inverse KD relative to VH0/Vk0)", "setting": "[2]", "result": 1.18}, {"measurement": "Index 1 (binding affinity, inverse KD relative to the Average 3.52)", "setting": "[3]", "result": 0.8}, {"measurement": "Kd", "setting": "[4]", "result": 0.44, "unit": "nM"}, {"measurement": "Relative KD to VMDO2 VH0/Vk0", "setting": "[4]", "result": 0.85}]}
{"binder": "VH6/Vk0 (antibody, IgG1, V domains shown, Full IgG1/kappa expressed in HEK 293 EBNA cells) VH: QVQLVQSGAEVKKPGSSVKVSCKASGYSFPTHWITWVRQAPGQGLEWMGTIDPTDSYNFYGPSFQGRVTITADKSTSTAYMELSSLRSEDTAVYYCARDGNYYDSRGYYYDTFDMWGQGTLVTVSS VL: DIQMTQSPSFLSASVGDRVTITCRASQGISTYLAWYQQKPGTAPKLLIYSASTLESGVPSRFSGSGSGTDFTLTISSLQPEDSATYYCQQADSFPLTFGGGTKVEIK", "values": [{"measurement": "Index 1 (Relative Migration divided by the Average 157.5), HUVEC migration assay", "setting": "[1]", "result": 0.962}, {"measurement": "Index 2 (Relative Migration relative to VH0/Vk0), HUVEC migration assay", "setting": "[1]", "result": 1.01}, {"measurement": "Relative Migration (%), HUVEC migration assay, 90 ng/ml", "setting": "[1]", "result": 152, "unit": "%"}, {"measurement": "Index 2 (binding affinity, inverse KD relative to VH0/Vk0)", "setting": "[2]", "result": 1.26}, {"measurement": "Index 1 (binding affinity, inverse KD relative to the Average 3.52)", "setting": "[3]", "result": 0.85}, {"measurement": "Kd", "setting": "[4]", "result": 0.414, "unit": "nM"}, {"measurement": "Relative KD to VMDO2 VH0/Vk0", "setting": "[4]", "result": 0.8}]}
{"binder": "VH4/Vk5 (antibody, IgG1, V domains shown, Full IgG1/kappa expressed in HEK 293 EBNA cells) VH: QVQLVQSGAEVKKPGSSVKVSCQGSGYSFPTHWITWVRQAPGQGLEWMGTIDPTDSYNFYGPSFQGRVTITADSSTSTAYMELSSLRSEDTAMYYCARDGNYYDSRGYYYDTFDMWGQGTLVTVSS VL: EIVLTQSPGTLSLSPGERATLSCRASQGISTYLAWYQQKPGQAPRLLIYSASTLESGIPDRFSGSGSGTDFTLTISRLEPEDFATYYCQQADSFPLTFGGGTKVEIK", "values": [{"measurement": "Index 1 (Relative Migration divided by the Average 157.5), HUVEC migration assay", "setting": "[1]", "result": 1.09}, {"measurement": "Index 2 (Relative Migration relative to VH0/Vk0), HUVEC migration assay", "setting": "[1]", "result": 1.14}, {"measurement": "Relative Migration (%), HUVEC migration assay, 90 ng/ml", "setting": "[1]", "result": 171, "unit": "%"}, {"measurement": "Index 2 (binding affinity, inverse KD relative to VH0/Vk0)", "setting": "[2]", "result": 0.989}, {"measurement": "Index 1 (binding affinity, inverse KD relative to the Average 3.52)", "setting": "[3]", "result": 0.669}, {"measurement": "Kd", "setting": "[4]", "result": 0.526, "unit": "nM"}, {"measurement": "Relative KD to VMDO2 VH0/Vk0", "setting": "[4]", "result": 1.01}]}
